Assay results as given in publication PMC10107152.

substrate: CC(C)(COP(=O)(O)OP(=O)(O)OC[C@H]1O[C@@H](n2cnc3c(N)ncnc32)[C@H](O)[C@@H]1OP(=O)(O)O)[C@@H](O)C(=O)NCCC(=O)NCCSC(=O)/C=C/c1ccccc1; assay: purified protein; details: varied cinnamoyl-CoA; malonyl-CoA as extender

Protein | Km | kcat | kcat/Km
2PS (2-pyrone synthase; WT-2PS) (Gerbera hybrid cultivar) (protein) MGSYSSDDVEVIREAGRAQGLATILAIGTATPPNCVAQADYADYYFRVTKSEHMVDLKEKFKRICEKTAIKKRYLALTEDYLQENPTMCEFMAPSLNARQDLVVTGVPMLGKEAAVKAIDEWGLPKSKITHLIFCTTAGVDMPGADYQLVKLLGLSPSVKRYMLYQQGCAAGGTVLRLAKDLAENNKGSRVLIVCSEITAILFHGPNENHLDSLVAQALFGDGAAALIVGSGPHLAVERPIFEIVSTDQTILPDTEKAMKLHLREGGLTFQLHRDVPLMVAKNIENAAEKALSPLGITDWNSVFWMVHPGGRAILDQVERKLNLKEDKLRASRHVLSEYGNLISACVLFIIDEVRKRSMAEGKSTTGEGLDCGVLFGFGPGMTVETVVLRSVRVTAAVANGN | 1.6 ± 0.5 µM | 0.000533 ± 5e-05 s⁻¹ | 340 ± 60 M⁻¹ s⁻¹
2PS (2-pyrone synthase; WT-2PS) (Gerbera hybrid cultivar; I201V/I343S/L202T/L261G) (protein) MGSYSSDDVEVIREAGRAQGLATILAIGTATPPNCVAQADYADYYFRVTKSEHMVDLKEKFKRICEKTAIKKRYLALTEDYLQENPTMCEFMAPSLNARQDLVVTGVPMLGKEAAVKAIDEWGLPKSKITHLIFCTTAGVDMPGADYQLVKLLGLSPSVKRYMLYQQGCAAGGTVLRLAKDLAENNKGSRVLIVCSEITAVTFHGPNENHLDSLVAQALFGDGAAALIVGSGPHLAVERPIFEIVSTDQTILPDTEKAMKGHLREGGLTFQLHRDVPLMVAKNIENAAEKALSPLGITDWNSVFWMVHPGGRAILDQVERKLNLKEDKLRASRHVLSEYGNLSSACVLFIIDEVRKRSMAEGKSTTGEGLDCGVLFGFGPGMTVETVVLRSVRVTAAVANGN | 7.1 ± 1.1 µM | 0.165 ± 0.01 s⁻¹ | 23000 ± 4000 M⁻¹ s⁻¹
2PS (2-pyrone synthase; WT-2PS) (Gerbera hybrid cultivar; I201V/I343S/L202T/L261A) (protein) MGSYSSDDVEVIREAGRAQGLATILAIGTATPPNCVAQADYADYYFRVTKSEHMVDLKEKFKRICEKTAIKKRYLALTEDYLQENPTMCEFMAPSLNARQDLVVTGVPMLGKEAAVKAIDEWGLPKSKITHLIFCTTAGVDMPGADYQLVKLLGLSPSVKRYMLYQQGCAAGGTVLRLAKDLAENNKGSRVLIVCSEITAVTFHGPNENHLDSLVAQALFGDGAAALIVGSGPHLAVERPIFEIVSTDQTILPDTEKAMKAHLREGGLTFQLHRDVPLMVAKNIENAAEKALSPLGITDWNSVFWMVHPGGRAILDQVERKLNLKEDKLRASRHVLSEYGNLSSACVLFIIDEVRKRSMAEGKSTTGEGLDCGVLFGFGPGMTVETVVLRSVRVTAAVANGN | 4.2 ± 0.8 µM | 0.0312 ± 0.00233 s⁻¹ | 7400 ± 1500 M⁻¹ s⁻¹
2PS (2-pyrone synthase; WT-2PS) (Gerbera hybrid cultivar; I201V/I343S/L202T) (protein) MGSYSSDDVEVIREAGRAQGLATILAIGTATPPNCVAQADYADYYFRVTKSEHMVDLKEKFKRICEKTAIKKRYLALTEDYLQENPTMCEFMAPSLNARQDLVVTGVPMLGKEAAVKAIDEWGLPKSKITHLIFCTTAGVDMPGADYQLVKLLGLSPSVKRYMLYQQGCAAGGTVLRLAKDLAENNKGSRVLIVCSEITAVTFHGPNENHLDSLVAQALFGDGAAALIVGSGPHLAVERPIFEIVSTDQTILPDTEKAMKLHLREGGLTFQLHRDVPLMVAKNIENAAEKALSPLGITDWNSVFWMVHPGGRAILDQVERKLNLKEDKLRASRHVLSEYGNLSSACVLFIIDEVRKRSMAEGKSTTGEGLDCGVLFGFGPGMTVETVVLRSVRVTAAVANGN | 1.4 ± 0.3 µM | 0.000767 ± 3.33e-05 s⁻¹ | 568 ± 116 M⁻¹ s⁻¹
2PS (2-pyrone synthase; WT-2PS) (Gerbera hybrid cultivar; I201V/I343S/L202T/L261V) (protein) MGSYSSDDVEVIREAGRAQGLATILAIGTATPPNCVAQADYADYYFRVTKSEHMVDLKEKFKRICEKTAIKKRYLALTEDYLQENPTMCEFMAPSLNARQDLVVTGVPMLGKEAAVKAIDEWGLPKSKITHLIFCTTAGVDMPGADYQLVKLLGLSPSVKRYMLYQQGCAAGGTVLRLAKDLAENNKGSRVLIVCSEITAVTFHGPNENHLDSLVAQALFGDGAAALIVGSGPHLAVERPIFEIVSTDQTILPDTEKAMKVHLREGGLTFQLHRDVPLMVAKNIENAAEKALSPLGITDWNSVFWMVHPGGRAILDQVERKLNLKEDKLRASRHVLSEYGNLSSACVLFIIDEVRKRSMAEGKSTTGEGLDCGVLFGFGPGMTVETVVLRSVRVTAAVANGN | 2.1 ± 0.5 µM | 0.00225 ± 0.000167 s⁻¹ | 1070 ± 270 M⁻¹ s⁻¹
SPS (styrylpyrone synthase; WT-SPS) (Piper methysticum) (protein) MSKTVEDRAAQRAKGPATVLAIGTATPANVVYQTDYPDYYFRVTKSEHMTKLKNKFQRMCDRSTIKKRYMVLTEELLEKNLSLCTYMEPSLDARQDILVPEVPKLGKEAADEAIAEWGRPKSEITHLIFCTTCGVDMPGADYQLTKLLGLRSSVRRTMLYQQGCFGGGTVLRLAKDLAENNAGARVLVVCSEITTAVNFRGPSDTHLDLLVGLALFGDGAAAVIVGADPDPTLERPLFQIVSGAQTILPDSEGAINGHLREVGLTIRLLKDVPGLVSMNIEKCLMEAFAPMGIHDWNSIFWIAHPGGPTILDQVEAKLGLKEEKLKSTRAVLREYGNMSSACVLFILDEVRKRSMEEGKTTTGEGFDWGVLFGFGPGFTVETVVLHSMPIPKADEGR | 3.7 ± 0.5 µM | 0.00287 ± 0.0001 s⁻¹ | 770 ± 30 M⁻¹ s⁻¹
